In general, stoichiometry N refers to the number of molecules, sites or subunits per partner or assembly. What is called Km is the substrate concentration at which the rate is half of its maximum. As a reminder, the kcat is the maximal rate divided by the concentration of active sites.

In data set [1] the target is T1, ɸEL (gp146) (Pseudomonas phage EL, UniProt Q2Z0T5).
T1 construct: tetradecameric double ring (~863 kDa) or single-ring heptamer (~431 kDa, with ATP and in the crystals)
T1 sequence (Q2Z0T5 1-558): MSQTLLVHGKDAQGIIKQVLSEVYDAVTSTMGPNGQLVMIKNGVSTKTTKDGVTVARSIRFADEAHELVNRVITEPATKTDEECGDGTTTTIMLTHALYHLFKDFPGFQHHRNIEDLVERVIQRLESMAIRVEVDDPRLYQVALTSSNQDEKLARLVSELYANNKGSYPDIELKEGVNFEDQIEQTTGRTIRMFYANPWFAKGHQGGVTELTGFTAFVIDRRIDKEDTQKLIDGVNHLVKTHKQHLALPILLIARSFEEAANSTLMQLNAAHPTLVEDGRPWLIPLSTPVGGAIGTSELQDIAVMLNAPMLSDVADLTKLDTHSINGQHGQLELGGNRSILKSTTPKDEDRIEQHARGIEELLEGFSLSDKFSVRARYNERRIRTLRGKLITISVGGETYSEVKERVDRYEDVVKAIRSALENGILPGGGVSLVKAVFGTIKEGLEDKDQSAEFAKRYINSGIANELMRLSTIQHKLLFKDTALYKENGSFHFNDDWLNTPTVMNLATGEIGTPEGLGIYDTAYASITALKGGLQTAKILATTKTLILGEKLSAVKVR
Nature of the data set: cryo-EM structure ([…] Å). Format: binding. As to conditions: double ring, D7, pH 7.5, Mg2+; pseudo-atomic model; ADP also modelled in crystal form II (6TMU, chains B, D, F, partial occupancy).

Another data set concerns the target T2, GroEL (Escherichia coli, UniProt P0A6F5).
T2 construct: purified GroEL tetradecamer; source and preparation not described
Nature of the data set: NADH-coupled ATPase assay. Format: biochemical. The conditions noted are these: 1 mM ATP, 50 mM Tris-HCl pH 7.5, 10 or 100 mM KCl, 10 mM MgCl2, 25°C; without GroES; rates only in figure.

Data set [2] addresses T1, ɸEL (gp146). Nature of the data set: X-ray crystal structure ([…] Å, crystal form I). Format: binding. The conditions noted are these: ATP added with BeSO4/NaF; ATP and ADP-BeFx not distinguishable, modelled as ATP with Mg2+; single-ring heptamer, equatorial domain site; also in form II (6TMU, 3.54 Å; chains A, C, E, G).
The target in data set [3] is T1, ɸEL (gp146). As to the kind of experiment: cryo-EM structure ([…] Å). Format: binding. The conditions noted are these: double ring, D7, pH 7.5, Mg2+; slowly hydrolysed ATP analogue; pseudo-atomic model.
Data set [4] concerns the target chaperonin gp146 (ɸEL) from the phage EL of Pseudomonas aeruginosa (Pseudomonas bacteriophage EL). Nature of the data set: SEC-MALS; ɸEL at 2 g/L, with 2 mM ATP, 20 mM HEPES-NaOH pH 7.5, 100 mM KCl, 2 mM Mg acetate, 25°C.
For data set [5] the target is unchanged. As to the kind of experiment: crystal structure; ɸEL crystallised with 2 mM ATP, 5 mM BeSO4 and 20 mM NaF; crystal forms I (4.03 Å) and II (3.54 Å).
For data set [6] the target is unchanged. As to the kind of experiment: cryo-EM structure; ɸEL with ADP, single particle analysis, D7 symmetry, 5.9 Å.
For data set [7] the target is unchanged. Nature of the data set: SEC-MALS; ɸEL at 2 g/L, with 2 mM ATP, 20 mM HEPES-NaOH pH 7.5, 50 mM KCl, 4 mM Mg acetate, 25°C. (In general: SEC sorts molecules by how far they enter the pores of the column.)
Data set [8] shares this target. As to the kind of experiment: cryo-EM structure; ɸEL with ATPγS, single particle analysis, D7 symmetry, 5.8 Å.
For data set [9] the target is unchanged. Nature of the data set: SEC-MALS; ɸEL at 2 g/L, no nucleotide, 20 mM HEPES-NaOH pH 7.5, 100 mM KCl, 2 mM Mg acetate (also run at 50 mM KCl), 25°C.
Data set [10] shares this target. Nature of the data set: SEC-MALS; ɸEL at 2 g/L, with 2 mM ADP, 20 mM HEPES-NaOH pH 7.5, 100 mM KCl, 2 mM Mg acetate (also run at 50 mM KCl), 25°C.
For data set [11] the target is unchanged. As to the kind of experiment: cryo-EM structure; apo-ɸEL, no nucleotide, single particle analysis, C2 symmetry, 3.45 Å.
Data set [12] has the same target.
The target of data set [13] is T3, GroEL from E. coli (E. coli, UniProt P0A6F5 1-548).
For data set [14], the target named is T3, GroEL from E. coli. As to the kind of experiment: cell-based or functional assay.
Substrate in data set [15]: Nc1ncnc2c1ncn2[C@@H]1O[C@H](COP(=O)(O)OP(=O)(O)OP(=O)(O)O)[C@@H](O)[C@H]1O
Nature of the data set: NADH-coupled ATPase assay (pyruvate kinase/lactate dehydrogenase), Hill fit. Format: biochemical, Pseudomonas phage EL. The conditions noted are these: high salt: 50 mM Tris-HCl pH 7.5, 100 mM KCl, 10 mM MgCl2, 25°C, Hill coefficient fitted.

T3 sequence (P0A6F5 whole entry): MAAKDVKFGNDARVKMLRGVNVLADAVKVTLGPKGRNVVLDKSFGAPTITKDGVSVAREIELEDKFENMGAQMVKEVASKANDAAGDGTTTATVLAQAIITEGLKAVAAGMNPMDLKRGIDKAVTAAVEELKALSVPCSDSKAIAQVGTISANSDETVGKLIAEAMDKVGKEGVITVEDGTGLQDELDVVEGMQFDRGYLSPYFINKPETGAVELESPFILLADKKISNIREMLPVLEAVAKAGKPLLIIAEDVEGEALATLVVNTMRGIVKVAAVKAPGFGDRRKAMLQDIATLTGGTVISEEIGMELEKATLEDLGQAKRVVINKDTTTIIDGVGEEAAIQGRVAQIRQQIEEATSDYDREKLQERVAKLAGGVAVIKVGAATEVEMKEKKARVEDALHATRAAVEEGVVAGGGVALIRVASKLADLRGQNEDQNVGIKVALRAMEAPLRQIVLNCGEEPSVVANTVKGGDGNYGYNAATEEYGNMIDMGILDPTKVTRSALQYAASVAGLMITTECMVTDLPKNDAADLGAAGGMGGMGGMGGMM
T2 sequence (P0A6F5 2-548): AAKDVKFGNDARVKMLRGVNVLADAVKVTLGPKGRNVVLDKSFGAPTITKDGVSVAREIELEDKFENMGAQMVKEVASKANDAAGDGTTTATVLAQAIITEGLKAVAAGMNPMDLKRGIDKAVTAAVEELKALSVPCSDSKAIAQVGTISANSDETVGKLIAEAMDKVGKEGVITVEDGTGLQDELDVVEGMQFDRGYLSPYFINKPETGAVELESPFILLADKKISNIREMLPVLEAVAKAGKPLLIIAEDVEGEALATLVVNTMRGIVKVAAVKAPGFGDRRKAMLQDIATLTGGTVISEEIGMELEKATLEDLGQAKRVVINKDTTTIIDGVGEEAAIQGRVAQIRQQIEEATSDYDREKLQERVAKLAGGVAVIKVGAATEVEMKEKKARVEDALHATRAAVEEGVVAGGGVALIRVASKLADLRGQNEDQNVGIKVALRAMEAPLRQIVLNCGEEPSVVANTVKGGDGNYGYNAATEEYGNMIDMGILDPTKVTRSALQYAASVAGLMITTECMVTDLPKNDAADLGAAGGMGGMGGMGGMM

Regarding `Nc1ncnc2c1ncn2[C@@H]1O[C@H](COP(=O)(O)OP(=O)(O)O)[C@@H](O)[C@H]1O` [ADP], the “cryo-EM structure (5.9 Å)” value at ɸEL (gp146) [1] is “we determined the solution structure of ɸEL in the presence of ADP by single-particle cryo-EM”.

As for `Nc1ncnc2c1ncn2[C@@H]1O[C@H](COP(=O)(O)OP(=O)(O)OP(=O)(O)O)[C@@H](O)[C@H]1O` [ATP], on GroEL, the “NADH-coupled ATPase assay” value was “ATPase activity of GroEL and ɸEL in presence and absence of a two-fold excess”. Further, the “X-ray crystal structure (4.03 Å, crystal form I)” value at ɸEL (gp146) [2] is “All subunits as judged from the electron density had either ATP or ADP•BeFX bound”.

Turning to `Nc1ncnc2c1ncn2[C@@H]1O[C@H](COP(=O)(O)OP(=O)(O)OP(O)(O)=S)[C@@H](O)[C@H]1O` [ATPγS], the “cryo-EM structure (5.8 Å)” value on ɸEL (gp146) [3] is reported as “we also determined the cryo-EM structure of ɸEL in the presence of the slowly hydrolyzing”.

For “chaperonin gp146 (ɸEL) from the phage EL of Pseudomonas aeruginosa (natural protein)”, the stoichiometry N in data set [4] worked out at 7; in data set [5], 7; in data set [6], 14; in data set [7] it was 14; in [8] it was 14; in data set [9] it was 14. Besides, the stoichiometry N in [10] and in data set [11] was 14 in each case.

With “double mutant of maltose binding protein (DM-MBP), denatured (from UniProt P0AEX9 27-396) (natural protein)”, the decrease in ɸEL ATPase activity with denatured DM-MBP, at 10 mM KCl, 1 mM ATP in data set [12] was determined as 60%. For the same molecule, the GroEL ATPase activity with denatured DM-MBP, at 10 and 100 mM KCl, 1 mM ATP with GroEL from E. coli [13] was determined as 2 fold.

B1: E. coli GroES (natural protein)
chain: MNIRPLHDRVIVKRKEVETKSAGGIVLTGSAAAKSTRGEVLAVGNGRILENGEVKPLDVKVGDIVIFNDGYGVKSEKIDNEEVLIMSESDILAIVEA
Consider B1, for which, in the data set with GroEL from E. coli [14], the “decrease in GroEL ATPase activity with a 2-fold molar excess of GroES, at 10 and 100 mM KCl, 1 mM ATP” value was around 50%.

B2: ɸEL (gp146) (Pseudomonas phage EL) (protein)
chain: MSQTLLVHGKDAQGIIKQVLSEVYDAVTSTMGPNGQLVMIKNGVSTKTTKDGVTVARSIRFADEAHELVNRVITEPATKTDEECGDGTTTTIMLTHALYHLFKDFPGFQHHRNIEDLVERVIQRLESMAIRVEVDDPRLYQVALTSSNQDEKLARLVSELYANNKGSYPDIELKEGVNFEDQIEQTTGRTIRMFYANPWFAKGHQGGVTELTGFTAFVIDRRIDKEDTQKLIDGVNHLVKTHKQHLALPILLIARSFEEAANSTLMQLNAAHPTLVEDGRPWLIPLSTPVGGAIGTSELQDIAVMLNAPMLSDVADLTKLDTHSINGQHGQLELGGNRSILKSTTPKDEDRIEQHARGIEELLEGFSLSDKFSVRARYNERRIRTLRGKLITISVGGETYSEVKERVDRYEDVVKAIRSALENGILPGGGVSLVKAVFGTIKEGLEDKDQSAEFAKRYINSGIANELMRLSTIQHKLLFKDTALYKENGSFHFNDDWLNTPTVMNLATGEIGTPEGLGIYDTAYASITALKGGLQTAKILATTKTLILGEKLSAVKVR
notes: tetradecameric double ring (~863 kDa) or single-ring heptamer (~431 kDa, with ATP and in the crystals)
Take B2: in data set [15], the Km came to 72 ± 8 µM and the kcat was 9.6 ± 0.12 s⁻¹ (per tetradecamer).
